Measured values from the supplement of paper PMC9170038.

Tested on: MS2 coat protein
Assay: apparent KD of MS2 coat protein; designed switch direction (-1 OFF switch, 1 ON switch): -1; higher = weaker reporter binding
Procedure, shortened: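 An oligonucleotide input, 200 uM small-molecule ligand, or no input was present during titration of SNAP-549-labelled MS2 coat protein, which was doubled from 0.7 or 1.5 nM to 3 µM. Designed RNA switches had been transcribed on Illumina chips by stalled E. coli RNA polymerase. Apparent KD per design is the median over clusters of curves fitted to normalised cluster fluorescence.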

[1] = Eterna round: R95, input ligand: FMN 200 uM
[2] = Eterna round: R95, input ligand: microRNA oligo, concentration not stated
[3] = Eterna round: R95, input ligand: none
[4] = input ligand: microRNA oligo, concentration not stated

Row | Sequence | apparent KD of MS2 coat protein (input ligand: FMN 200 uM) [nM] | apparent KD of MS2 coat protein (input ligand: none) [nM] | apparent KD of MS2 coat protein [1] [nM] | apparent KD of MS2 coat protein [2] [nM] | apparent KD of MS2 coat protein [3] [nM] | apparent KD of MS2 coat protein [4] [nM]
1 | GACAGGGCAGGAUAUCGAGAUCCUCACAUGAGGAUCACCCAUGUUCAGUCGAAAGACUGACGAGAAGGGCCGUGUC [Omei Ex5 E3] (Eterna round: R97, puzzle: Exclusion 5) | 36.8 | 33.2 | – | – | – | –
2 | GACCCUAGGGUCAGACGCACAAGCUUUUUGCUCGUUUUAACAUGAGGAUCACCCAUGUCUAGUGGAUCUGAUCGGGC [Ongege] (puzzle: Sensor v3, turn-off variant 2) | – | – | 26.3 | 151 | 29.5 | –
3 | GACUGAACGUGGUCUGGUUACAUGAGGAUCACCCAUGUAGGUCUAAGAACAUGUCUUUUGUACGCUCGUCUUAUAUA [JR_SV3TOV1_Sub066] (puzzle: Sensor v3, turn-off variant 1) | – | – | 16.7 | 38.1 | 15 | –
4 | GACUGAGCAGGAUAUACAUGAGGAUCACCCAUGUUGGUUCAGCGACGAUAGUCGCAAUGUAGAAGGGCUCAGUC [E3/9-D2] (Eterna round: R97, puzzle: Exclusion 3) | 273 | 203 | – | – | – | –
5 | GACUGGACAGGAUAUGUUCUUGAGCACUUGAGGAUCACCCAAGUCAUCAAGAACUCAGGCACAGAAGGGUUUAUGA [salish99_ex5_r4_008] (Eterna round: R97, puzzle: Exclusion 5) | 29.6 | 13.5 | – | – | – | –
6 | GACUUCUCUGAGGAUAUUGCAUCAUACGAUCUAUAAGAAGGCAGAACAUGAGGAUCACCCAUGUGGGUUUCUAG [Bingo-Bango-28] (Eterna round: R97, puzzle: Exclusion 6) | 70.2 | 38.3 | – | – | – | –
7 | GAGAAGGUAGGAUAUACGAAUAAAUAGGGUAGUAAUAAGACACAUGAGGAUCACCCAUGUAGAAGGACCAAGAG [Mat - Exclusion 2 - Mod of my Tesla design - D38] (puzzle: Exclusion 2) | – | – | 37 | 19.3 | 21.1 | –
8 | GAGACAUGAGGAUCACCCAUGUGUGGUCCAAGGCAUGUCGUCGAGGAUAUGCAGGACGUCGUCUUGCAGAAGGCGACUAAAUAC [Teatarti] (Eterna round: R96, puzzle: Exclusion NG 3) | 17.8 | 105 | – | – | – | 19.5
9 | GAGAUGCGGAUAGGAUAUGGAAGAAAAGAAGGAUUAGAAGGGUUGGUUAGAAUACAUGAGGAUCACCCAUGUGAAUCAUGAGAA [AK ExNG1-2.3] (Eterna round: R96, puzzle: Exclusion NG 1) | 99.2 | 128 | – | – | – | 81.1
10 | GAGAUGUGAGGAUAUCUAGACCGCGGAAGAGCCGCAGUCCGAGAGAAGGCACAUGAGGAUCACCCAUGUGAUGA [Teorgeor] (puzzle: Exclusion 4) | – | – | – | 36 | – | –
11 | GAGCAGCGAGGAUAUACAGACGGGUCCAGUACGUGUCUUGGACUUGAGGAUCACCCAAGUAGAAGGCGCCACAG [salish99_ex2_r4_605] (Eterna round: R97, puzzle: Exclusion 2) | 42.6 | 25.8 | – | – | – | –
12 | GAGGAACAUGAGGAUCACCCAUGUGAGGAUAUGCAUAGUGAGCUAGUAGACGUUUAUUGCAGAAGGUACACUGA [JR_Exclu1_Sub080] (puzzle: Exclusion 1) | – | – | – | 25.3 | – | –
13 | GAGGAGCAAGGAUAUACGAGGAUAGGGAAGGUUGGAGAGUGACAUGAGGAUCACCCAUGUAGAAGGUGCAAGGG [JR_Exclu2_Sub095] (puzzle: Exclusion 2) | – | – | – | 108 | – | –
14 | GAGUACUGAGGAUAUACAUGAGGAUCACCCAUGUGUUCCAACUAGGAAUCUAGAAUAUGUAGAAGGCAGUGCUG [salish99_ex3_r4_702] (Eterna round: R97, puzzle: Exclusion 3) | 71.3 | 123 | – | – | – | –
15 | GAGUAGUAAGGAUAUAGUAGGAGGGAGAAGUGAGGAGAGAACUAGAAGGUACAUGAGGAUCACCCAUGUUGAGA [JR_Exclu4_Sub084] (puzzle: Exclusion 4) | – | – | 24.3 | 19.2 | 19.5 | –
16 | GAGUCUCGAAAGGAUAUUUAGGUGUAUGCAGGUAGAGAAGGUUCGACAUGAGGAUCACCCAUGUAAUGGUUUCC [Eternabot (L2) Solution 25] (Eterna round: R97, puzzle: Exclusion 6) | 157 | 84 | – | – | – | –
17 | GAGUGCUAAGGAUAUACAUGAGGAUCACCCAUGUGCUUCAGCUAGGAGACUAGCAUUGGUAGAAGGUAGUACUC [Mod of lroppy 2 - Jieux - Exclusion 3] (Eterna round: R97, puzzle: Exclusion 3) | 60.3 | 14.7 | – | – | – | –
18 | GAUAGAGAGCAGGAUAUCUUGGAUAAGUGUUGUAGAGAAGGGCUCACAUGAGGAUCACCCAUGUGGUCCUAGAU [JL Dibiri mod 09] (puzzle: Exclusion 6) | – | – | 37.5 | 13.2 | 14.3 | –
19 | GAUAGAGAGCAGGAUAUCUUGGGUAAGUAUCGUAGAGAAGGGCUCACAUGAGGAUCACCCAUGUGGUCCUAGAU [JL Dibiri mod 03] (puzzle: Exclusion 6) | – | – | – | 11.5 | – | –
20 | GAUAGAGAGCAGGAUAUCUUGGGUAAGUGUUGUAGAGAAGGGCUCACAUGAGGAUCACCCAUGUGGUCCUAGAU [JL Dibiri mod 08] (puzzle: Exclusion 6) | – | – | 33.5 | 14.5 | 11.3 | –
21 | GAUCAACAUGAGGAUCACCCAUGUGAGGAUAUGAUACUAUGUACUUCGGUACAUAGUAUCAGAAGGCAUAUAAA [Ex1-3: 37] (puzzle: Exclusion 1) | – | – | – | 40.4 | – | –
22 | GAUCAUGCAGGAUAUACAUGUUCCAUGAAAACAUGGUCCUCACAUGAGGAUCACCCAUGUAGAAGGGCAUGAUC [Omei Ex2 A31] (Eterna round: R97, puzzle: Exclusion 2) | 132 | 1450 | – | – | – | –
23 | GAUCCUAGUGUCAGGAUAUGCGAACAAACGCCAAAGCAGAAGGGACUUGAGGAUCACCCAAGUCGCGAUGCGAC [Arbiaran] (Eterna round: R97, puzzle: Brourd's mod of Exclusion 4) | 257 | 45.1 | – | – | – | –
24 | GAUGAAAGAGUCAGGAUAUAUAACCACGACGGCUUGUAGAAGGGACAUGAGGAUCACCCAUGUGAUGGAAUGAU [Eternabot (L2) Solution 13] (Eterna round: R97, puzzle: Brourd's mod of Exclusion 4) | 64 | 43.6 | – | – | – | –
